Test results as given in patent US20250009852A1, “DEPLETING EGFR AND HER2 OVERCOMES RESISTANCE TO EGFR INHIBITORS IN COLORECTAL CANCER” (Health Research, Inc., priority 2021, published 2025).

B1: PEPD^G278D: recombinant and enzymatically inactive mutant of human peptidase D (PEPD), with replacement of glycine 278 by aspartic acid (protein)
chain: AAATGPSFWLGNETLKVPLALFALNRQRLCERLRKNPAVQAGSIVVLQGGEETQRYCTDTGVLFLQESFFHWAFGVTEPGCYGVIDVDTGKSTLFVPRLPASHATWMGKIHSKEHFKEKYAVDDVQYVDEIASVLTSQKPSVLLTLRGVNTDSGSVCREASFDGISKFEVNNTILHPEIVESRVFKTDMELEVLRYTNKISSEAHREVMKAVKVGMKEYGLESLFEHYCYSRGGMRHSSYTCICGSGENSAVLHYGHAGAPNDRTIQNGDMCLFDMDGEYYSVASDITCSFPRNGKFTADQKAVYEAVLLSSRAVMGAMKPGDWWPDIDRLADRIHLEELAHMGILSGSVDAMVQAHLGAVFMPHGLGHFLGIDVHDVGGYPEGVERIDEPGLRSLRTARHLQPGMVLTVEPGIYFIDHLLDEALADPARASFLNREVLQRFRGFGGVRIEEDVVVIDSGIELLTCVPRTVEEIEACMAGCDKAFTPFSGPK
modifications: left off: small tags and cut ends

How the values were obtained:
HCT116 tumors = test: Subcutaneous HCT116 tumors in SCID mice; format: in vivo, mouse; details: sc HCT116 tumors
Procedure: SCID mice (C.B.17 SCID) were bred by the Laboratory Animal Shared Resource at Roswell Park Comprehensive Cancer Center. Male mice at 7-8 weeks of age were used. All mouse experiments were approved by the Institutional Animal Care and Use Committee at Roswell Park Comprehensive Cancer Center under protocol 1022M. We established subcutaneous tumors by inoculating 1×10^6 HCT116 cells, 4×10^6 HT29 cells, or 2×10^6 SW48 cells to the flank of each mouse in 100 μl of serum free medium. Colon patient-derived xenograft (PDX) 14650 was established from a liver metastatic lesion in a patient treated at Roswell Park Comprehensive Cancer Center. Tumor fragments (˜20 mm^3) from donor mice were implanted into the flank of each mouse subcutaneously using a trocar. Orthotopic colon tumors in mice were established by inoculating HCT116 cells stably transfected with firefly luciferase (2×10^6 cells in 50 μl of 50% serum-free medium and 50% Matrigel) to the caecum wall of each mouse. Mice in each tumor model were randomized cage-wise into treatment groups using Research Randomizer (www.randomizer.org). Subcutaneous tumor volume was measured using length ×width^2÷2. Tumor volume was measured three times each week. Orthotopic tumor growth was monitored by bioluminescence weekly. Mice were given D-luciferin (150 mg/kg) by ip and anesthetized with isoflurane, and tumor burden was measured by bioluminescence using the IVIS Spectrum In Vivo Imaging System (PerkinElmer). Drug treatment was started when significant tumor growth was detected. EP (0.5 mg/kg) was administered to mice ip once daily. […] Aderbasib (60 mg/kg) was administered to mice by gavage once daily. 5-FU (35 mg/kg) was administered to mice ip twice weekly (Monday and Thursday). EP, PEPD^G278D and 5-FU were administered to mice in PBS. Aderbasib was first dissolved in DMSO and then diluted by PBS (final 5% DMSO by volume). Each agent was administered to mice at 0.1 ml volume per 20 g body weight. When a mouse was given multiple agents on the same day, the agents were dosed at approximately 30 min intervals. The mice were closely monitored for sign of adverse effects and weighed three times each week. Mice were sacrificed 24-48 hours after the last treatment, at which point the tumors were promptly removed, snap frozen and stored at −80° C. for later analysis. Some tumors were fixed in 10% buffered formalin, paraffin embedded, cut at 4 μm, and stained with hematoxylin and eosin (H & E) for histological analysis.

HT29 tumors = test: Subcutaneous HT29 tumors in SCID mice; format: in vivo, mouse; details: sc HT29 tumors
Procedure: SCID mice (C.B.17 SCID) were bred by the Laboratory Animal Shared Resource at Roswell Park Comprehensive Cancer Center. Male mice at 7-8 weeks of age were used. All mouse experiments were approved by the Institutional Animal Care and Use Committee at Roswell Park Comprehensive Cancer Center under protocol 1022M. We established subcutaneous tumors by inoculating 1×10^6 HCT116 cells, 4×10^6 HT29 cells, or 2×10^6 SW48 cells to the flank of each mouse in 100 μl of serum free medium. Colon patient-derived xenograft (PDX) 14650 was established from a liver metastatic lesion in a patient treated at Roswell Park Comprehensive Cancer Center. Tumor fragments (˜20 mm^3) from donor mice were implanted into the flank of each mouse subcutaneously using a trocar. Orthotopic colon tumors in mice were established by inoculating HCT116 cells stably transfected with firefly luciferase (2×10^6 cells in 50 μl of 50% serum-free medium and 50% Matrigel) to the caecum wall of each mouse. Mice in each tumor model were randomized cage-wise into treatment groups using Research Randomizer (www.randomizer.org). Subcutaneous tumor volume was measured using length ×width^2÷2. Tumor volume was measured three times each week. Orthotopic tumor growth was monitored by bioluminescence weekly. Mice were given D-luciferin (150 mg/kg) by ip and anesthetized with isoflurane, and tumor burden was measured by bioluminescence using the IVIS Spectrum In Vivo Imaging System (PerkinElmer). Drug treatment was started when significant tumor growth was detected. EP (0.5 mg/kg) was administered to mice ip once daily. PEPD^G278D (4 mg/kg) was administered to mice ip thrice weekly (Monday, Wednesday, Friday). Aderbasib (60 mg/kg) was administered to mice by gavage once daily. 5-FU (35 mg/kg) was administered to mice ip twice weekly (Monday and Thursday). EP, PEPD^G278D and 5-FU were administered to mice in PBS. Aderbasib was first dissolved in DMSO and then diluted by PBS (final 5% DMSO by volume). […] The mice were closely monitored for sign of adverse effects and weighed three times each week. […]

[1] = aderbasib alone 60 mg/kg by gavage daily
[2] = EP plus PEPD^G278D 4 mg/kg ip three times weekly, or cetuximab 15 mg/kg ip twice weekly

Molecule | tumor growth (HCT116 tumors; [1]) | tumor growth (HT29 tumors; [1]) | tumor growth (HCT116 tumors; [2]) | tumor growth (HCT116 tumors; EP plus PEPD^G278D 8 mg/kg ip thrice weekly) | tumor growth (HT29 tumors; [2])
COC(=O)N1CC2(CC2)C[C@H](C(=O)NO)[C@H]1C(=O)N1CC=C(c2ccccc2)CC1 [aderbasib] | ineffective | ineffective |  |  | 
B1 |  |  | neither agent inhibited the growth | did not inhibit tumor growth | neither agent inhibited the growth
